Data from paper PMC2807033.

Target: RepΔC33 (Rep lacking the C-terminal 33 residues) (E. coli) (UniProt P09980)
Experiment: not stated; apparent KD (equilibrium dissociation constant), Figure S5; the method is not told in the text shown (SPR is the only quantitative binding method that the paper names)

A Kd of 1700 nM was found for “E. coli replicative helicase DnaB, purified (from UniProt P0ACB0 1-471) (enzyme)” in this work.
